For the series, the system named is Escherichia coli TOP10. As to the kind of experiment: shrunken log2 fold change of peptide-encoding DNA abundance (4.5 h post-induction vs induction); higher = less antimicrobial activity (less host growth inhibition). The note with it: time post-induction: 4.5 h; library: site-saturation at positions 5, 18, 19, 20.
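Also: peptides expressed intracellularly from a pBAD plasmid library in pooled LB shake-flask culture, induced with 0.3% L-arabinose, DNA abundance read by NGS, three biological replicates, DESeq2 with apeglm shrinkage.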

In the case of RRIRHRPPRLPRPRPRPPPDPRP, the “shrunken log2 fold change” value was 0.646.
To RRIRYRPPRLPRPRPRPDCEPRP belongs 0.0295; to RRIRCRPPRLPRPRPRPVCDPRP, -0.245.
In the case of RRIRCRPPRLPRPRPRPRFAPRP it was 0.356; in that of RRIRIRPPRLPRPRPRPCMDPRP, -0.695.
In the case of RRIRGRPPRLPRPRPRPCIYPRP it was 0.0369; in that of RRIRPRPPRLPRPRPRPFAEPRP, 0.0204; in that of RRIRLRPPRLPRPRPRPNSTPRP, -0.294.
As to RRIRGRPPRLPRPRPRPLDKPRP, the “shrunken log2 fold change” value was 0.401.
In the case of RRIRERPPRLPRPRPRPPEQPRP, the “shrunken log2 fold change” value was 0.251.
To RRIRIRPPRLPRPRPRPLTNPRP belongs -0.572; to RRIRLRPPRLPRPRPRPVGIPRP, 0.102.
To RRIRLRPPRLPRPRPRPPAGPRP belongs 0.607; to RRIRMRPPRLPRPRPRPPMWPRP, -0.0434.
To RRIRRRPPRLPRPRPRPSEHPRP belongs 0.453; to RRIRQRPPRLPRPRPRPIQEPRP, -0.142; to RRIRKRPPRLPRPRPRPITYPRP, -0.193.
Consider RRIRTRPPRLPRPRPRPTYRPRP, for which the “shrunken log2 fold change” value was -0.0768.
For RRIRARPPRLPRPRPRPFHRPRP, the “shrunken log2 fold change” value turned out to be 0.206.
To RRIRPRPPRLPRPRPRPGNRPRP belongs -0.0146; to RRIRPRPPRLPRPRPRPVQTPRP, 0.00686.
To RRIRCRPPRLPRPRPRPGSSPRP belongs 0.0141; to RRIRARPPRLPRPRPRPTGMPRP, 0.52.
To RRIRMRPPRLPRPRPRPRWIPRP belongs 0.00451; to RRIRPRPPRLPRPRPRPKTTPRP, 0.507; to RRIRVRPPRLPRPRPRPSFLPRP, -0.666.
Regarding RRIRERPPRLPRPRPRPETLPRP, the “shrunken log2 fold change” value was -0.0176.
In the case of RRIRTRPPRLPRPRPRPGLMPRP it was 0.0921; in that of RRIRERPPRLPRPRPRPQIVPRP, -0.108; in that of RRIRHRPPRLPRPRPRPIVCPRP, -0.0297.
For RRIRLRPPRLPRPRPRPLTRPRP, the “shrunken log2 fold change” value is 1.93.
Regarding RRIRSRPPRLPRPRPRPRFMPRP, the “shrunken log2 fold change” value was -0.211.
To RRIRWRPPRLPRPRPRPLCCPRP belongs 0.0117.
In the case of RRIRQRPPRLPRPRPRPTPLPRP it was 0.487; in that of RRIRYRPPRLPRPRPRPYTLPRP, -0.213.
In the case of RRIRHRPPRLPRPRPRPQKGPRP it was -0.0617; in that of RRIRSRPPRLPRPRPRPYTGPRP, -0.125.
On to RRIRSRPPRLPRPRPRPVHEPRP, for which the “shrunken log2 fold change” value is -0.185.
To RRIRWRPPRLPRPRPRPVIMPRP belongs -0.273; to RRIRPRPPRLPRPRPRPNCMPRP, -0.16.
In the case of RRIRQRPPRLPRPRPRPALSPRP it was 0.217; in that of RRIRYRPPRLPRPRPRPLDLPRP, -0.0215; in that of RRIRCRPPRLPRPRPRPAHTPRP, -0.0293.
To RRIRRRPPRLPRPRPRPEFVPRP belongs -0.0836; to RRIRMRPPRLPRPRPRPGVGPRP, 0.841; to RRIRCRPPRLPRPRPRPCHMPRP, -0.443.
For the sequence RRIRTRPPRLPRPRPRPHNAPRP, the “shrunken log2 fold change” value is -0.391.
For the sequence RRIRCRPPRLPRPRPRPRKDPRP, the “shrunken log2 fold change” value is -0.0271.
To RRIRIRPPRLPRPRPRPRMRPRP belongs 0.791.
In the case of RRIRQRPPRLPRPRPRPSKQPRP it was -0.0831.
In the case of RRIRRRPPRLPRPRPRPKGCPRP it was 0.0288; in that of RRIRKRPPRLPRPRPRPQDVPRP, -0.0018.
In the case of RRIRDRPPRLPRPRPRPPVIPRP, the “shrunken log2 fold change” value was found to be 0.0554.
In the case of RRIRVRPPRLPRPRPRPSLTPRP, the “shrunken log2 fold change” value is -0.231.
Take RRIRMRPPRLPRPRPRPSPCPRP: the “shrunken log2 fold change” value came out at 0.18.
In the case of RRIRFRPPRLPRPRPRPTRVPRP it was 0.616; in that of RRIRERPPRLPRPRPRPPCAPRP, -0.0458; in that of RRIRQRPPRLPRPRPRPFGFPRP, -0.233.
In the case of RRIRSRPPRLPRPRPRPTCCPRP it was 0.164; in that of RRIRRRPPRLPRPRPRPGKRPRP, 0.363; in that of RRIRSRPPRLPRPRPRPGPQPRP, 0.885.
With RRIRTRPPRLPRPRPRPMSPPRP, the “shrunken log2 fold change” value was -0.152.
RRIRGRPPRLPRPRPRPIWHPRP: the “shrunken log2 fold change” value came out at 0.213.
In the case of RRIRNRPPRLPRPRPRPAARPRP it was 0.161.
In the case of RRIRFRPPRLPRPRPRPVTRPRP it was -0.0263.
In the case of RRIRDRPPRLPRPRPRPKGVPRP it was -0.00195.
Turning to RRIRSRPPRLPRPRPRPNQEPRP, the “shrunken log2 fold change” value was 0.0169.
RRIRFRPPRLPRPRPRPWMHPRP: the “shrunken log2 fold change” value is -0.0282.
To RRIRTRPPRLPRPRPRPCGCPRP belongs 0.0633; to RRIRPRPPRLPRPRPRPTQCPRP, -0.194; to RRIRRRPPRLPRPRPRPEPEPRP, 0.837.
In the case of RRIRLRPPRLPRPRPRPNMSPRP it was -0.129; in that of RRIRQRPPRLPRPRPRPLTSPRP, -0.254.
With RRIRTRPPRLPRPRPRPEQWPRP, the “shrunken log2 fold change” value was -0.0581.
In the case of RRIRQRPPRLPRPRPRPSTNPRP it was -0.364; in that of RRIRIRPPRLPRPRPRPTNEPRP, -0.4.
To RRIRDRPPRLPRPRPRPIDMPRP belongs -0.185; to RRIRVRPPRLPRPRPRPKAYPRP, 0.0199; to RRIRMRPPRLPRPRPRPYRHPRP, 0.0311.
On to RRIRGRPPRLPRPRPRPIILPRP, for which the “shrunken log2 fold change” value was determined as 0.197.
As for RRIRDRPPRLPRPRPRPIHFPRP, the “shrunken log2 fold change” value is -0.0728.
To RRIRIRPPRLPRPRPRPLKLPRP belongs -0.838; to RRIRFRPPRLPRPRPRPDWSPRP, -0.214; to RRIRPRPPRLPRPRPRPDCEPRP, 0.0556.
In the case of RRIRHRPPRLPRPRPRPLFKPRP it was -0.183; in that of RRIRERPPRLPRPRPRPCSYPRP, -0.0141; in that of RRIRRRPPRLPRPRPRPCAFPRP, 0.123.
To RRIRSRPPRLPRPRPRPGKSPRP belongs -0.0274; to RRIRRRPPRLPRPRPRPFWLPRP, 0.231; to RRIRNRPPRLPRPRPRPNLYPRP, -0.515.
Consider RRIRTRPPRLPRPRPRPCREPRP, for which the “shrunken log2 fold change” value amounted to 0.0664.

The record behind these values is the supplement of paper PMC9112550, “Optimization of the antimicrobial peptide Bac7 by deep mutational scanning” (BMC Biology, 2022).
